Substitutions are numbered along the chain they refer to.
B1: 515H7: murine anti-CXCR4 monoclonal antibody; light chain variable domain SEQ ID No. 7, heavy chain variable domain SEQ ID No. 8 (antibody, listed as Mus musculus, V domains shown)
VH: EVNLVESGGGLVQPGGSLRLSCATSGFTFTDNYMSWVRQPPGKALEWLGFIRNKANGYTTDYSASVRGRFTISRDNSQSILYLQMNALRAEDSATYYCARDVGSNYFDYWGQGTTLTVSS
VL: DIVMSQSPSSLAVSAGEKVTMSCKSSQSLFNSRTRKNYLAWYQQKPGQSPKLLIYWASARDSGVPARFTGSGSETYFTLTISRVQAEDLAVYYCMQSFNLRTFGGGTKLEIK
B2: 301aE5: murine anti-CXCR4 monoclonal antibody; light chain variable domain SEQ ID No. 34, heavy chain variable domain SEQ ID No. 35 (antibody, listed as Mus musculus, V domains shown)
VH: QVQLKESGPGLVAPSQSLSITCTVSGFSLTDYGVYWVRQPPGKGLEWLGMIWGDGTTDYNSALKSRLSISKDNSKSQVFLKMNTLQTDDTARYYCARGRQFGFDYWGQGTTLTVSS
VL: B1 VL with S22R, Y55F, A59I, D61E, A66D, E74G, Y76D, R83S, M95K, F98Y
B3: c515H7: chimeric antibody 515H7: murine variable domains fused to human Ckappa and IgG1/IgG2/IgG4 constant domains; isotype tested not stated (antibody, V domains shown)
VH: B1 VH
VL: B1 VL

What was measured:
Format in all cases: cell-based
[1] = molecular target: T1, CXCR4 homodimer (Homo sapiens, UniProt P61073); assay: BRET on HEK293 cells expressing CXCR4/Rluc+CXCR4/YFP; conditions: without SDF-1
T1 construct: expressed in transfected cells; host or cells: HEK293, transient transfection
Excerpt: This functional assay allows to evaluate the conformational changes induced upon SDF-1 and/or 515H7 Mab binding to CXCR4 receptor at the level of CXCR4 homodimer.
(§1) Expression vectors for the investigated interaction partners were constructed as fusion proteins with the corresponding dye (Renilla reniformis luciferase, Rluc and Yellow fluorescent protein, YFP) by applying conventional molecular biology techniques. Two days prior performing BRET experiments, HEK293 cells were transiently transfected with expression vectors coding for the corresponding BRET partners: [CXCR4/Rluc+CXCR4/YFP] to study CXCR4 homodimerization. The day after, cells were distributed in poly-lysine pre-coated white 96 MW plates in complete culture medium [DMEM supplemented with 10% FBS]. Cells were first cultivated at 37° C. with CO2 5% in order to allow cell attachment to the plate. Cells were then starved with 200 μl DMEM/well overnight Immediately prior to the BRET experiment, DMEM was removed and cells were quickly washed with PBS. Cells were then incubated in PBS in the presence or absence of antibody, 10 min at 37° C. prior to the addition of coelenterazine H 5 μM with or without SDF-1 300 nM in a final volume of 50 μl. After incubation for further 10 minutes at 37° C., light-emission acquisition at 485 nm and 530 nm was initiated using the Mithras LB940 multilabel reader (Berthold) (1 s/wavelength/well repeated 15 times at room temperature).
(§2) Calculation of BRET ratio was performed as previously described (Angers et al., 2000): [(emission530 nm)−(emission485 nm)×Cf]/(emission485 nm), where Cf=(emission530 nm)/(emission485 nm) for cells expressing the Rluc fusion protein alone under the same experimental conditions. […] For sake of readability, results are expressed in mi11iBRET units (mBU); mBU corresponds to the BRET ratio multiplied by 1000.
This functional assay allows to evaluate the conformational changes induced upon SDF-1 and/or c515H7 Mab binding to CXCR4 receptor at the level of CXCR4 homodimer.
as §1, with “Cells were then incubated in PBS in the presence or absence of antibody, 10 min at 37° C. prior to the addition of coelenterazine H 5 μM with or without SDF-1 300 nM in a final volume of 50 μl.” left out
as §2, with “milliBRET” for “mi11iBRET”, “1000. […]” for “1000.”

[2] = test system: HIV-1 X4 primary isolate 92UG024; assay: Single cycle neutralization assay in human PBMC, isolate 92UG024; set-up: 92UG024 % inhibition of infected cells 90 / 92UG024 % inhibition of infected cells 80: unit not given here; conditions: for 92UG024 % inhibition of infected cells 90: IC for 90% inhibition
Protocol: This assay is performed in 36 h using primary isolates KON, MN and 92UG024 concentrated and diluted accordingly to allow the detection 2% infected CD4 T lymphocytes after 2 days of infection.
Twenty-five microliters of various dilutions of Mabs 515H7, c515H7 and 301aE5 were incubated for 1 h at 37° C. with 25 μl of virus. Human PBMC (25 μl) at 20×10^6 cells/ml were added to the Mab/virus mixture in a 96-well plate (U-bottom, Costar 3599) and cultured for 36 h in RPMI 1640 10% FCS and 20 U/ml IL-2 (R&D Systems, Minneapolis, Minn.).
After 2 days of culture, HIV-infected lymphocytes were detected by intracellular staining of viral p24 Ag. Cells were fixed and permeabilized using both Cytofix/Cytoperm and Perm/Wash kits (BD Biosciences) according to the manufacturer and stained with a fluorescent anti-p24 Mab (FITC- or PE-anti-p24, clone KC57; Beckman Coulter/Immunotech, Hialeah, Fla.) used at a 1/160 dilution in Perm/Wash solution added for 15 min at 4° C. After washing in PBS with 3% FBS, PBMC were diluted in 300 μl of PBS before flow cytometry analysis (LSRII; BD Biosciences) with DIVA software (BD Biosciences). The percentage of p24-positive cells in the different samples was determined by gating 20,000 events on a living cell population identified by forward- and side-scatter parameters. The living cell subsets were analyzed with the live/dead solution kit (Invitrogen). The p24 Ag-positive value was obtained after subtraction of background events in mock-infected cells.
The percent of neutralization was defined as the reduction of p24-positive cells compared with control infected wells with no Mab. […]

[3] = test system: HIV-1 X4 primary isolate KON; assay: Single cycle neutralization assay in human PBMC, isolate KON; conditions: IC for 80% inhibition

T1 sequence (P61073 whole entry): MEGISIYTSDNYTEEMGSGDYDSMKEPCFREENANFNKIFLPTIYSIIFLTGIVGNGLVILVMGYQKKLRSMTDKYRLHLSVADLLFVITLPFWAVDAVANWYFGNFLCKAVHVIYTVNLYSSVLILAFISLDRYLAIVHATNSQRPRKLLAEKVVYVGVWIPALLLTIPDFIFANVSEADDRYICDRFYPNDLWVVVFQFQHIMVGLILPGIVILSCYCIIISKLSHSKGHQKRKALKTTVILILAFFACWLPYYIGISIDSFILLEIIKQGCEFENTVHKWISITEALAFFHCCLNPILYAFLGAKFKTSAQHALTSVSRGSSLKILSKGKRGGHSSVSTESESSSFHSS
T1 sequence (P61073 whole entry): as above

Row | Molecule | modulation of CXCR4/CXCR4 spatial proximity by the Mab itself [1] | inhibition of HIV-1 X4 92UG024 primary isolate replication in PBMC (in words) [2] | 92UG024 % inhibition of infected cells 90 ([2]; human PBMC) | KON % inhibition of infected cells 80 [3] | 92UG024 % inhibition of infected cells 80 ([2]; IC for 80% inhibition, human PBMC)
1 | B1 | able to modulate by themselves CXCR4/CXCR4 spatial proximity | able to inhibit | 10 | 8 µg/mL | –
2 | B2 | able to modulate by themselves CXCR4/CXCR4 spatial proximity | able to inhibit | >150 | >150 µg/mL | 150
3 | B3 | able to modulate by itself CXCR4/CXCR4 spatial proximity | able to inhibit | 15 | 10 µg/mL | –
